B1: 14A11, mouse IgG2a Fc version (antibody)
heavy: QITLKESGPGILQSSQTLSLTCSFSGVSLTTSGMGVSWIRQPSGKGLEWLAHIYWDDEKHYHPSLKSRLTISKDASRNQVFFRILSVDTADTATYYCALRYYGYRSFMDYWGQGTSVTVSSAKTTAPSVYPLAPVCGDTTGSSVTLGCLVKGYFPEPVTLTWNSGSLSSGVHTFPAVLQSDLYTLSSSVTVTSSTWPSQSITCNVAHPASSTKVDKKIEPRGPTIKPCPPCKCPAPNLLGGPSVFIFPPKIKDVLMISLSPIVTCVVVDVSEDDPDVQISWFVNNVEVHTAQTQTHREDYNSTLRVVSALPIQHQDWMSGKEFKCKVNNKDLPAPIERTISKPKGSVRAPQVYVLPPPEEEMTKKQVTLTCMVTDFMPEDIYVEWTNNGKTELNYKNTEPVLDSDGSYFMYSKLRVEKKNWVERNSYSCSVVHEGLHNHHTTKSFSRTPGK
light: DVLMTQSPLSLPVSLGDQASIFCRSNQSIVHSNGNTYFEWYLQKPGQSPKLLIYKVSNRFSGVPDRFSGSGSGTDFTLRISRVEAEDLGIYYCFQGSHVPPTFGGGTKLEIKRADAAPTVSIFPPSSEQLTSGGASVVCFLNNFYPKDINVKWKIDGSERQNGVLNSWTDQDSKDSTYSMSSTLTLTKDEYERHNSYTCEATHKTSTSPIVKSFNRNEC
notes: Recombinant, mouse IgG2a and mouse kappa constant regions; also called mAb 14A11; detection antibody 14A11 (anti-human/cyno mature-Factor D-specific)
B2: 14A11, hybridoma supernatant (antibody, V domains shown)
VH: QITLKESGPGILQSSQTLSLTCSFSGVSLTTSGMGVSWIRQPSGKGLEWLAHIYWDDEKHYHPSLKSRLTISKDASRNQVFFRILSVDTADTATYYCALRYYGYRSFMDYWGQGTSVTVSS
VL: DVLMTQSPLSLPVSLGDQASIFCRSNQSIVHSNGNTYFEWYLQKPGQSPKLLIYKVSNRFSGVPDRFSGSGSGTDFTLRISRVEAEDLGIYYCFQGSHVPPTFGGGTKLEIKR
notes: Mouse hybridoma antibody

What was measured:
[1] = target: T1, recombinant human mature Factor D (human, UniProt P00746 26-253); assay: sandwich ELISA: coat 3C5 (human IgG4), sample titrated (ug/ml Df), detection 14A11 (mouse IgG2a), HRP donkey anti-mouse IgG; OD450
T1 construct: also called mature CFD; hCFD
Source text: (§1) An HRP-labeled F(ab′)₂ fragment donkey anti-mouse IgG H&L antibody (Jackson ImmunoResearch) was used to signal the detection antibody, followed by development with TMB substrate (ThermoFisher).

[2] = target: T2, recombinant cynomolgus mature Factor D (cynomolgus monkey); assay: sandwich ELISA: coat 3C5 (human IgG4) 3 ug/mL, sample in 3-fold dilutions (ug/ml Df), detection 14A11 (mouse IgG2a) 3 ug/mL, HRP donkey anti-mouse IgG; OD450
T2 construct: mature; not tied by words to this reagent; also called cy Mat CFD; cynomolgus recombinant mature Factor D
Procedure: as §1
(§2) Wells were then washed three times. […] The plates were washed three times. 100 μL of Horseradish Peroxidase labeled F(ab′)2 Fragment Donkey anti-Mouse IgG H&L antibody (Jackson ImmunoResearch), diluted 1:30,000, was added to each well and incubated for one hour at room temperature. Wells were then washed three times.

[3] = target: T1, recombinant human mature Factor D; assay: as above
Procedure: as §1, §2

[4] = target: T3, purified (from human plasma) human Factor D (human, UniProt P00746 26-253); assay: as above
T3 construct: also called hu purif; CFD; purified human complement factor D (Complement Technologies)
Procedure: as §1, §2

[5] = target: T2, recombinant cynomolgus mature Factor D; assay: sandwich ELISA: coat 12H10 (human IgG4), sample titrated (ug/ml Df), detection 14A11 (mouse IgG2a), HRP donkey anti-mouse IgG; OD450
Source text: as §1

[6] = target: T1, recombinant human mature Factor D; assay: as above
Source text: as §1

[7] = target: T2, recombinant cynomolgus mature Factor D; assay: sandwich ELISA standard curve: coat 3C5 (human IgG4) 3 ug/mL, recombinant cynomolgus mature Factor D titrated, detection 14A11 3 ug/mL, HRP donkey anti-mouse IgG; OD450
Source text: After washing, an HRP-labeled secondary antibody (HRP-labeled F(ab′)2 Fragment Donkey anti-Mouse IgG H&L antibody (Jackson ImmunoResearch)) was used to signal the detection antibody, followed by development with TMB (ThermoFisher). Samples were interpolated from a 4-parameter logistics curve of cynomolgus recombinant mature Factor D dilutions.

[8] = target: T4, recombinant human Pro-Factor D (human, UniProt P00746 20-253); assay: sandwich ELISA: coat goat polyclonal AF1824; 2 ug/mL recombinant CFD spiked into buffer or 10% Factor D-depleted serum; detection with 14A11 hybridoma supernatant diluted in half, HRP goat anti-mouse IgG Fc; OD450
T4 construct: also used for the endogenous pro-Factor D detected in 3MC patient serum; also called pro CFD; hPro-CFD
Procedure: ELISA plates were coated overnight at 4° C. with polyclonal goat anti-human CFD AF1824 (R&D Systems). Plate wells were washed, blocked, and washed again. Normal human serum pool, normal human plasma pool or Factor D-depleted human serum were diluted 10-fold in assay buffer (PBS with 1% BSA and 0.05% Tween 20, PBST-BSA), either un-spiked or spiked with 2 μg/mL recombinant pro-(pro CFD) or mature-factor D (mature CFD). These matrices, including a buffer control with or without recombinant protein spiked in, were incubated for 60 minutes at room temperature, and then washed. […] The detection antibodies were incubated for one hour at room temperature and washed, then developed with a horseradish peroxidase (HRP)-labeled goat polyclonal to mouse IgG Fc (Jackson ImmunoResearch).

Binder | EC50 (read off the curve) [1] | EC50 (read off the curve) [2] | EC50 (read off the curve) [3] | EC50 (read off the curve) [4] | EC50 (read off the curve) [5] | EC50 (read off the curve) [6] | EC50 (read off the curve) [7] | binding result [8]
B1 | ~0.02 µg/mL | ~0.06 µg/mL | ~0.03 µg/mL | ~0.04 µg/mL | ~0.08 µg/mL | ~0.04 µg/mL | ~0.06 µg/mL | 
B2 |  |  |  |  |  |  |  | no binding
